Target: IL12 receptor on pre-activated mouse CD8+ T cells (mouse) (UniProt Q60837)
Assay: cell-based or functional assay

IL12 receptor on pre-activated mouse CD8+ T cells (mouse), sequence (Q60837 20-738, chain 1 of 2): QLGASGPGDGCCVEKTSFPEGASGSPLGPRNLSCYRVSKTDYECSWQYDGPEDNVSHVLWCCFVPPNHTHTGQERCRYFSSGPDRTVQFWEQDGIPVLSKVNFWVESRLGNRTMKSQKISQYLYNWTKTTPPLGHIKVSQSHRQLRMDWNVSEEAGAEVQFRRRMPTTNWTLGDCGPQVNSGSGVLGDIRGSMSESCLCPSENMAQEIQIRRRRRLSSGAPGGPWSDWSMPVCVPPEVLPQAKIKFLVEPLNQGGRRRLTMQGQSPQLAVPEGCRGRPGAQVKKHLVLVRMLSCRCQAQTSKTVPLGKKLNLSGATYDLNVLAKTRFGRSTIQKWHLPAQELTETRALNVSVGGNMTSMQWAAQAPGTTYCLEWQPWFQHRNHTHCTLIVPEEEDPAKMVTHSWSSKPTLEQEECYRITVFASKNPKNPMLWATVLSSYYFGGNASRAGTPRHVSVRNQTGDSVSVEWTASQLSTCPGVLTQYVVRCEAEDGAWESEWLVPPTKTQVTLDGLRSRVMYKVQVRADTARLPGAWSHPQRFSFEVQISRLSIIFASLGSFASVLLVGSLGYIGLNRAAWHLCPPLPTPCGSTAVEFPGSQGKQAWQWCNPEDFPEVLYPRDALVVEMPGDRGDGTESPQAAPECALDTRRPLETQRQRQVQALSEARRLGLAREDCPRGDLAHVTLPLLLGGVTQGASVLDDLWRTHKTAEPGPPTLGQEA
IL12 receptor on pre-activated mouse CD8+ T cells (mouse), sequence (chain, as listed by the source, chain 2 of 2): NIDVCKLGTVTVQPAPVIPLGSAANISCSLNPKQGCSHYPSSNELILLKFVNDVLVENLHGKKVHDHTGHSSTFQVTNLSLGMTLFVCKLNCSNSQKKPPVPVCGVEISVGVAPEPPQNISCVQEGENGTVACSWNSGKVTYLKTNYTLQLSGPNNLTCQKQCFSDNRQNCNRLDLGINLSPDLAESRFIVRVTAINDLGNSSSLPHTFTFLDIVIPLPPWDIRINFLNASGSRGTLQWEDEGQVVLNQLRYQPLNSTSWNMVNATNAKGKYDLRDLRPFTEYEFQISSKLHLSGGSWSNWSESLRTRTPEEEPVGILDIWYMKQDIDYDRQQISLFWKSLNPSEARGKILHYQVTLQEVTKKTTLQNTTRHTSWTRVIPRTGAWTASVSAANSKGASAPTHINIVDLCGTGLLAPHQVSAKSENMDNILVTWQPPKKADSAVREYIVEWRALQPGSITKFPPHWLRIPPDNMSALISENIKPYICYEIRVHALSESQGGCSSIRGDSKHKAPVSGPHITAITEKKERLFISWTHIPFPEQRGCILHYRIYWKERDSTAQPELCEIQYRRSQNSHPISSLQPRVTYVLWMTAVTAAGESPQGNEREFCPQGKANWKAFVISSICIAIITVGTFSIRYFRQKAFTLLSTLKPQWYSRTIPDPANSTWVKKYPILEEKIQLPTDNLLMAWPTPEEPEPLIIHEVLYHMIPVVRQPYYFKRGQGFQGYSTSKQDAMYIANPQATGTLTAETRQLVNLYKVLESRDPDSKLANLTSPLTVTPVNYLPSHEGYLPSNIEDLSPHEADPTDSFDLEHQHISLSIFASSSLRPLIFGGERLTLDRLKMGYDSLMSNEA

EC50 of STAT4 phosphorylation in pre-activated mouse CD8+ T cells, fold against unmodified IL12: 80 fold
Substance: IL12Rβ1-(G3S)11-IL12

Source: patent US20220281936A1
